This test has as its system target antigen-expressing cell line. As to the kind of experiment: Jurkat NFAT-GFP assay, coculture with target cell lines expressing the respective target antigen (summary Table 10A). It is filed as cell-based, human. Further details: key: The signs +/−, +, 2+ etc. after the name of the cell lines indicate the relative degree of positivity on the Jurkat-NFAT-GFP assay as measured by the % GFP positive cells; +: relative degree of positivity on the Jurkat-NFAT-GFP assay as measured by the % GFP positive cells; 2+: relative degree of positivity on the Jurkat-NFAT-GFP assay as measured by the % GFP positive cells. Conditions: relative % GFP positive cells; for NFAT-GFP ASSAY Positive Cell lines: RAJI: SIR-expressing Jurkat-NFAT-GFP cells cocultured with RAJI. The procedure, abridged: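 Read-out: % GFP+ cells by FACS. SIR-transduced, puromycin-selected Jurkat NFAT-GFP (IL-2 promoter reporter) cocultured ~4–18 h with target line, E:T ~1:2; parental cells as control; graded +/−, +, 2+ relative to parental.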

B1: 102715-E07 (protein)
chain: MALPVTALLLPLALLLHAARPDIQMTQSPSSLSASVGDRVTITCRASQTIWSYLNWYQQRPGKAPNLLIYAASSLQSGVPSRFSGRGSGTDFTLTISSLQAEDFATYYCQQSYSIPQIFGQGTKLEIKLEGKPIPNPLLGLDSTGSGEDLKNVFPPEVAVFEPSKAEIAHTQKATLVCLATGFYPDHVELSWWVNGKEVHSGVCTDPQPLKEQPALNDSRYCLSSRLRVSATFWQNPRNHFRCQVQFYGLSENDEWTQDRAKPVTQIVSAEAWGRADCGITSASYHQGVLSATILYEILLGKATLYAVLVSALVLMAMVKRKDSRGRAKRSGSGATNFSLLKQAGDVEENPGPTSMDWIWRILFLVGAATGAHSFEQVQLQQSGPGLVKPSQTLSLTCAISGDSVSSNSAAWNWIRQSPSRGLEWLGRTYYRSKWYNDYAVSVKSRITINPDTSKNQFSLQLNSVTPEDTAVYYCAREVTGDLEDAFDIWGQGTMVTVSSTREQKLISEEDGSGIQNPDPAVYQLRDSKSSDKSVCLFTDFDSQTNVSQSKDSDVYITDKCVLDMRSMDFKSNSAVAWSNKSDFACANAFNNSIIPEDTFFPSSDVPCDVKLVEKSFETDTNLNFQNLSVIGFRILLLKVAGFNLLMTLRLWSSRAKRSGSGVKQTLNFDLLKLAGDVESNPGPSRGHMTEYKPTVRLATRDDVPRAVRTLAAAFADYPATRHTVDPDRHIERVTELQELFLTRVGLDIGKVWVADDGAAVAVWTTPESVEAGAVFAEIGPRMAELSGSRLAAQQQMEGLLAPHRPKEPAWFLATVGVSPDHQGKGLGSAVVLPGVEAAERAGVPAFLETSAPRNLPFYERLGFTVTADVEVPEGPRTWCMTRKPGA
modifications: Synthetic Immune Receptor (SIR)
As to B1, the “NFAT-GFP ASSAY Positive Cell lines: RAJI” value is “RAJI (+)”.

B2: 050516-V06 (protein)
chain: MALPVTALLLPLALLLHAARPDIVMTQSPSSLSASVGDRVTITCKASQSVTNDVAWYQQKPGKAPKLLIYYASNRYTGVPSRFSGSGSGTDFTLTISSLQPEDFATYYCQQDYRSPWTFGGGTKVEIKRLEGKPIPNPLLGLDSTGSGEDLKNVFPPEVAVFEPSKAEIAHTQKATLVCLATGFYPDHVELSWWVNGKEVHSGVCTDPQPLKEQPALNDSRYCLSSRLRVSATFWQNPRNHFRCQVQFYGLSENDEWTQDRAKPVTQIVSAEAWGRADCGITSASYHQGVLSATILYEILLGKATLYAVLVSALVLMAMVKRKDSRGRAKRSGSGATNFSLLKQAGDVEENPGPTSMDWIWRILFLVGAATGAHSFEQVQLEESGGGVVRPGRSLRLSCAASGFTFSDYGVNWIRQAPGKGLEWVTIIWGDGRTDYNSALKSRFTVSRNNSNNTLSLQMNSLTTEDTAVYYCVRAPGNRAMEYWGQGVLVTVSSTREQKLISEEDGSGIQNPDPAVYQLRDSKSSDKSVCLFTDFDSQTNVSQSKDSDVYITDKCVLDMRSMDFKSNSAVAWSNKSDFACANAFNNSIIPEDTFFPSSDVPCDVKLVEKSFETDTNLNFQNLSVIGFRILLLKVAGFNLLMTLRLWSSRAKRSGSGVKQTLNFDLLKLAGDVESNPGPSRGHMTEYKPTVRLATRDDVPRAVRTLAAAFADYPATRHTVDPDRHIERVTELQELFLTRVGLDIGKVWVADDGAAVAVWTTPESVEAGAVFAEIGPRMAELSGSRLAAQQQMEGLLAPHRPKEPAWFLATVGVSPDHQGKGLGSAVVLPGVEAAERAGVPAFLETSAPRNLPFYERLGFTVTADVEVPEGPRTWCMTRKPGA
modifications: Synthetic Immune Receptor (SIR)
Turning to B2, the “NFAT-GFP ASSAY Positive Cell lines: RAJI” value was “RAJI (+/−)”.

B3: 091216-A03 (protein)
chain: MALPVTALLLPLALLLHAARPLEGKPIPNPLLGLDSTGSGEDLKNVFPPEVAVFEPSKAEIAHTQKATLVCLATGFYPDHVELSWWVNGKEVHSGVCTDPQPLKEQPALNDSRYCLSSRLRVSATFWQNPRNHFRCQVQFYGLSENDEWTQDRAKPVTQIVSAEAWGRADCGITSASYHQGVLSATILYEILLGKATLYAVLVSALVLMAMVKRKDSRGRAKRSGSGATNFSLLKQAGDVEENPGPTSTMALPVTALLLPLALLLHAARPDIQMTQSPSSLSASVGDRVTITCRSSQSIVHSVGNTFLEWYQQKPGKAPKLLIYKVSNRFSGVPSRFSGSGSGTDFTLTISSLQPEDFATYYCFQGSQFPYTFGQGTKVEIKRGGGGSGGGGSGGGGSEVQLVESGGGLVQPGGSLRLSCAASGYEFSRSWMNWVRQAPGKGLEWVGRIYPGDGDTNYSGKFKGRFTISADTSKNTAYLQMNSLRAEDTAVYYCARDGSSWDWYFDVWGQGTLVTVSSTREQKLISEEDGSGIQNPDPAVYQLRDSKSSDKSVCLFTDFDSQTNVSQSKDSDVYITDKCVLDMRSMDFKSNSAVAWSNKSDFACANAFNNSIIPEDTFFPSSDVPCDVKLVEKSFETDTNLNFQNLSVIGFRILLLKVAGFNLLMTLRLWSSRAKRSGSGVKQTLNFDLLKLAGDVESNPGPSRGHMTEYKPTVRLATRDDVPRAVRTLAAAFADYPATRHTVDPDRHIERVTELQELFLTRVGLDIGKVWVADDGAAVAVWTTPESVEAGAVFAEIGPRMAELSGSRLAAQQQMEGLLAPHRPKEPAWFLATVGVSPDHQGKGLGSAVVLPGVEAAERAGVPAFLETSAPRNLPFYERLGFTVTADVEVPEGPRTWCMTRKPGA
modifications: Synthetic Immune Receptor (SIR)
In the case of B3, the “NFAT-GFP ASSAY Positive Cell lines: RAJI” value was “RAJI (+)”.

B4: 041216-C05 (protein)
chain: MALPVTALLLPLALLLHAARPDIQMTQSPSSLSASVGDRVTITCRSSQSIVHSVGNTFLEWYQQKPGKAPKLLIYKVSNRFSGVPSRFSGSGSGTDFTLTISSLQPEDFATYYCFQGSQFPYTFGQGTKVEIKRLEGKPIPNPLLGLDSTGSGEDLKNVFPPEVAVFEPSKAEIAHTQKATLVCLATGFYPDHVELSWWVNGKEVHSGVCTDPQPLKEQPALNDSRYCLSSRLRVSATFWQNPRNHFRCQVQFYGLSENDEWTQDRAKPVTQIVSAEAWGRADCGITSASYHQGVLSATILYEILLGKATLYAVLVSALVLMAMVKRKDSRGRAKRSGSGATNFSLLKQAGDVEENPGPTSMDWIWRILFLVGAATGAHSFEEVQLVESGGGLVQPGGSLRLSCAASGYEFSRSWMNWVRQAPGKGLEWVGRIYPGDGDTNYSGKFKGRFTISADTSKNTAYLQMNSLRAEDTAVYYCARDGSSWDWYFDVWGQGTLVTVSSTREQKLISEEDGSGTPFPSLAPPIMLLVDGKQQMVVVCLVLDVAPPGLDSPIWFSAGNGSALDAFTYGPSPATDGTWTNLAHLSLPSEELASWEPLVCHTGPGAEGHSRSTQPMHLSGEASTARTCPQEPLRGTPGGALWLGVLRLLLFKLLLFDLLLTCSCLCDPAGPLPSPATTTRLRALGSHRLHPATETGGREATSSPRPQPRDRRWGDTPPGRKPGSPVRAKRSGSGVKQTLNFDLLKLAGDVESNPGPSRGHMTEYKPTVRLATRDDVPRAVRTLAAAFADYPATRHTVDPDRHIERVTELQELFLTRVGLDIGKVWVADDGAAVAVWTTPESVEAGAVFAEIGPRMAELSGSRLAAQQQMEGLLAPHRPKEPAWFLATVGVSPDHQGKGLGSAVVLPGVEAAERAGVPAFLETSAPRNLPFYERLGFTVTADVEVPEGPRTWCMTRKPGA
modifications: Polynucleotide encoding a Synthetic Immune Receptor (SIR)
For B4, the “NFAT-GFP ASSAY Positive Cell lines: RAJI” value is given as “RAJI (+/−), NALM6”. For the same molecule, the “NFAT-GFP ASSAY Positive Cell lines: NALM6” value (SIR-expressing Jurkat-NFAT-GFP cells cocultured with NALM6) is “(+/−)”.
